B1: CB028.2 (antibody, V domains shown)
VH: QVQLVQSGAEVKKPGASVKVSCKASGYTFTTYGITWVRQAPGQGLEWMGWISGDSDNTNYAQNLQGRVTLTTDISTRTAYMELRSLKPDDTAMYYCARALAKWYCSSSSCFCGGGSCYSDYWGQGTLVTVSS
VL: DIQMTQSPSSLSASVGDRVTITCRASQGMSNYLNWYQQKPGKAPELLIYAASTLQSGVPSRFSGSGSGTDFTLTINSLQPEDFATYFCQQSFSTPLTFGGGTKVEIK
B2: CB003.1 (antibody, V domains shown)
VH: QVQLVQSGPELRKPGASVTVSCKASGYTFTTYYIHWVRQAPGGGLDWMGMINTGSGVTSYAQKFQGRVAMTRDTSTSTVFMELSSLRFEDTALYYCARMYSGSWYPFDYWGQGALVTVSS
VL: EIVLTQSPGTLSLSPGERATLSCRASQNINGNYLAWYQQKPGLAPRLLIYEASSRATGIPDRFSGSGSGTDFTLTISSLEPEDFGVYYCQQYGTSPFFTFGPGTKVDIK
B3: CB010.7 (antibody, V domains shown)
VH: QVQLVESGGGVVQPGRSLRLSCAASGFTFNTHGMHWVRQAPGKGLEWVAVMSYDGTKKYHADSVKGRFTISRDNSKNTLYLQMNSLRVEDTAIYYCAKVGELRSFDWLLADGTAYYYYGMDVWGQGTTVTVSS
VL: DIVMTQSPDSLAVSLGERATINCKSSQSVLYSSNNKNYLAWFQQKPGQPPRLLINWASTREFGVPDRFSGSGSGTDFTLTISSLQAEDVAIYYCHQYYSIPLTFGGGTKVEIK
B4: CB058.1 (antibody, V domains shown)
VH: EVQLVESGGGLVQPGGSLRLSCVASGFTFSSYAMSWVRQAPGKGLEWVSAIRGSVDNTYYADSVKGRFTISRDNSKNTLYLQMNSLRVEDTAVYYCAKDPALYCSGETCFSDLTDWGQGTLVTVSS
VL: DIQMTQSPSSLSASVGDRVTITCRASQGINNYLAWFQQKPGKAPKSLIYAASTLPSGVPSRFSGSGSGTDFTLTISSLQPEDSATYFCQHYIRYPHTFGQGTKLEIK
B5: CB048.3 (antibody, V domains shown)
VH: QVQLVESGGGVVQPGRSLRLSCAASGFTFSNHGMHWVRQAPGKGLEWVAVISYDGNKKYYADSVKGRFTVSRDNSKNTLSLQMDSLRAEDTAIYYCAKTTFYFDDSNYYEYLDYWGQGTLVTVSS
VL: DIQLTQSPSFLSASVGDRVTITCRASQGIRSYLAWYQQKPGKAPKLLIYAASTLQSGVPSRFSGGGSGTEFTLTISSLQPEDSATYYCQQLNTSPPYTFGQGTKLEIK
B6: CB002.1 (antibody, V domains shown)
VH: QVQLQESGPRLVKPSETLSLTCTVSGGSTSSYFWNWIRQPPGKGLEWIGYIYGSGSADYNPSLKSRVTISIDTSKTQFSLKLTSVTAADTAVYYCARSGFCTNDACYRRGSWFDPWGQGTLVTVSS
VL: DIQMTQSPSSLSASVGDRVTITCRASQSIDNYLNWYQQKPGKAPKLLIYAASSLQSGVPSRFSGSGSGTDFTLTVSSLHPEDFATYYCQQSYSTLTWTFGQGTKVEIK
notes: also called CB2.1

Biological target: T1, G protein of RSV B/18537 (virus, ATCC Cat. No. VR-1580) (Respiratory syncytial virus B/18537, UniProt P20896 1-292)
T1 sequence: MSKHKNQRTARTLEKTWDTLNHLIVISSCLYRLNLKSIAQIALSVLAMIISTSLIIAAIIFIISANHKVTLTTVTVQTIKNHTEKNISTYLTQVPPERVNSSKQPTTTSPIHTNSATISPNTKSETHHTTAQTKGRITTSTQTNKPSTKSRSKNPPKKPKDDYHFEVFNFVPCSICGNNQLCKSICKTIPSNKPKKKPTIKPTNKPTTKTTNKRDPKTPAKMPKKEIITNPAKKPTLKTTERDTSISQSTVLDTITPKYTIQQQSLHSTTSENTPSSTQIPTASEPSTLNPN
Assay: cell-based or functional assay

Q: For B1, which “Neutralization IC50 (plaque reduction assay, Vero cells)” value is on record?
A: 0.0196 µg/mL

Q: How did the “Neutralization IC50 (plaque reduction assay, Vero cells)” value turn out when B2 was run?
A: 0.0246 µg/mL

Q: For B3, which “Neutralization IC50 (plaque reduction assay, Vero cells)” value is on record?
A: 0.0141 µg/mL

Biological target: T2, G protein of RSV A/A2 (virus, ATCC Cat. No. VR-1540) (Respiratory syncytial virus A/A2, UniProt P03423 1-298)
T2 sequence: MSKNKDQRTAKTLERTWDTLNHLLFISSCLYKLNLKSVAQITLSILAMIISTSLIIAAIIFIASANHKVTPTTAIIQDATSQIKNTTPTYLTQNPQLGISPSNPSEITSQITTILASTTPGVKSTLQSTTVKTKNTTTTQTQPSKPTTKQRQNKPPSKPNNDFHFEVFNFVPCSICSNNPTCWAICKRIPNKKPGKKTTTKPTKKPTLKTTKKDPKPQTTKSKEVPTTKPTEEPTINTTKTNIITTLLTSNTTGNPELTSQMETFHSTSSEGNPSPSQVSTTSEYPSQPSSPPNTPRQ
Assay: cell-based or functional assay

Q: Which “Neutralization IC50 (plaque reduction assay, Vero cells)” value does the source give for B2 here?
A: 0.0315 µg/mL

Q: Which “Neutralization IC50 (plaque reduction assay, Vero cells)” value does the source give for B4 here?
A: 0.0144 µg/mL

Q: Which “Neutralization IC50 (plaque reduction assay, Vero cells)” value does the source give for B3 here?
A: 0.0165 µg/mL

Q: B5 was tested. Which “Neutralization IC50 (plaque reduction assay, Vero cells)” value did it give?
A: 0.0167 µg/mL

Q: Which “Neutralization IC50 (plaque reduction assay, Vero cells)” value does the source give for B6 here?
A: 0.0355 µg/mL

Biological target: T3, G protein of RSV A/Long (virus, ATCC Cat. No. VR-26) (Respiratory syncytial virus A/Long, UniProt P20895 1-298)
T3 sequence (looked up): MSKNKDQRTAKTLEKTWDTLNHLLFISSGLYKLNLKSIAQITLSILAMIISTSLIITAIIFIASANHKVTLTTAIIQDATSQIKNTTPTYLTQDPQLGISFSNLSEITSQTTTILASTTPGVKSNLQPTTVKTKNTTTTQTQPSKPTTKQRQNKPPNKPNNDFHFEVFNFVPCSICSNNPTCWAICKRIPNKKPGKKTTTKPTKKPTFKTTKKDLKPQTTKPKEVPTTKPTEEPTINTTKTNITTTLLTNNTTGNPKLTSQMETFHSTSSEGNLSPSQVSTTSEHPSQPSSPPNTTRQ
Assay: cell-based or functional assay

Q: How did the “Neutralization IC50 (plaque reduction assay, Vero cells)” value turn out when B2 was run?
A: 0.016 µg/mL

Q: Which “Neutralization IC50 (plaque reduction assay, Vero cells)” value does the source give for B3 here?
A: 0.012 µg/mL

Biological target: T4, Recombinant RSV attachment protein (G protein) corresponding to RSV A/Long (Respiratory syncytial virus A/Long, UniProt P20895 65-298)
T4 construct: also called RSV Ga; Ga
T4 sequence: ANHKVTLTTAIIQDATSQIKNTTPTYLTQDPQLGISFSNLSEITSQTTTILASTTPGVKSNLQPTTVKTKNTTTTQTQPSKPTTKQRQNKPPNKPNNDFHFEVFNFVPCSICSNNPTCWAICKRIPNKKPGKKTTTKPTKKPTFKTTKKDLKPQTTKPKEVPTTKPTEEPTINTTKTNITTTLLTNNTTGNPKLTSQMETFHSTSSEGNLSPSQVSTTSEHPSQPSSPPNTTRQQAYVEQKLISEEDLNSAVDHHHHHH
Assay: ELISA, coated recombinant protein (Example 6)

Q: Does B1 bind?
A: binds

Q: Does B4 bind?
A: binds

Q: Does B5 bind?
A: binds

Q: Does B6 bind?
A: binds

Biological target: T5, Recombinant RSV attachment protein (G protein) corresponding to RSV B/B1 (Respiratory syncytial virus B/B1, UniProt O36633 65-299)
T5 sequence: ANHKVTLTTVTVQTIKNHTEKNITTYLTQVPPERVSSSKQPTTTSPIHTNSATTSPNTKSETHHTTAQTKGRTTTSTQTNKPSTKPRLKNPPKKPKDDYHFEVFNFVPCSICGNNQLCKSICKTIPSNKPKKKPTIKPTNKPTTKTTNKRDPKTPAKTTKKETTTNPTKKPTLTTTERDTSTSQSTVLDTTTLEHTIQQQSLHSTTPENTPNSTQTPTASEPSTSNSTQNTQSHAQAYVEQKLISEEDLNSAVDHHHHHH
Assay: ELISA, coated recombinant protein (Example 6)

Q: Does B1 bind?
A: binds

Q: Does B4 bind?
A: binds

Q: Does B3 bind?
A: binds

Q: Does B5 bind?
A: binds

Q: Does B6 bind?
A: binds
